From patent publication US20220242941A1 (NOVOBIND LIVESTOCK THERAPEUTICS, published 2022)
Positions count from the first letter of the chain named.

B1: NBX16043 (VHH)
VHH: QVQLQESGGGLVQAGGSLRLSCAASGIAFSMFDMVWYRQAPGKQRELVASVSDGGSTAYADSVKGRFTISRDNAKKMVYLQMNSLKPEDTAVYYCKAARSWAYGSGYWGQGIQVTVSS
B2: NBX16033 (VHH)
VHH: QVQLQESGGGTVQAGGSLRLSCAVSGSTFSSYSMNWYRQGPGNQREWVGGIRSNDSTYYADSVKGRFTISRDNAKNAWNLQMNSLKSEDTAVYYCNFWDGSFNQYWGQGTQVTVSA
B3: NBX16039 (VHH)
VHH: QVQLQQSGGGLVQAGGSLRLSCTTSGIIFSFSLLNVGWYRQAPGKERELVARMSTAGNTYYSTSVKDRFTISRDNGKNTVDLQMNSLNADDTAVYYCNLRRSWAPSDSGFWGQGTQVFVSS
B4: NBX16042 (VHH)
VHH: QVQLQESGGGLVQAGGSLRLSCVASGITFNFNYYVMGWYRQAPGKQRELVARISDGGNTNYADSVKGRFTISRDNTKNTGYLQMNSLKPEDTAIYYCNLRRSWAPADNGHWGQGTQVTVSS
B5: NBX16038 (VHH)
VHH: QVQLQQSGGGLVQSGGSLRLSCTATRSTISGYGGRWYRQAPGKQREFVALLSSGGMTRYADSVMGRFTISRDDIKNTLYLQMNTLKPEDTAVYYCNTFDGAWGQGTQVTVSS
B6: NBX16035 (VHH)
VHH: QVQLQESGGGLVQAGGSLRLSCAASGSIFSINVIGWYRQVPGKERELVANSGSTTKYADSVKGRFTISRDNAKNTVDLQMNSLKPEDTAVYYCNAVVTSRTSLGLRSYVYWGQGTQVTVSS
B7: NBX16041 (VHH)
VHH: B6 VHH with V40A, V109A
B8: NBX16037 (VHH)
VHH: B6 VHH with E6Q, N50K, G52D, S53R, L103Q, V109A
B9: NBX16034 (VHH)
VHH: QVQLQESGGGVVQAGGSLRLSCVASGSDTSVYAMRWWRQVPGKERLLLASITSGGTVRYAESVKGRFTISRDDAKNTLYLQMNSLKTEDTAVYLCNAERVLARQNYWGQGTQVTVSS
B10: NBX16036 (VHH)
VHH: QVQLQESGGGLVQAGGSLRLSCVALGNIGWINDMGWYRQAPGKERELVARISSAEATNYADAVKGRFTISRDDAKNTVYLQMNSLKPEDTAVYSCHTRRWYDDGYDYDTWGQGTQVTVSS
B11: NBX16040 (VHH)
VHH: QVQLQESGGGMVQAGGSLRLSCAASGTTITINTMRWYRQPPGKERELVASIVPSGKTYYADSVKGRFTISRDNHKNTMYLQMNSLKPEDTAVYYCNSDGRFRGIGTYWGQGTQVTVSS
B12: NBX17019 (VHH)
VHH: QVQLQESGGGLVQAGGSLRLSCTGPGSTFSSYAVGWYRQAPGGNREWVASISSSGEITRYADSVTGRFTISRDNAKNTVDLQMNSLRPEDTAVYYCAIGTMARGKGTLVTVSS
B13: NBX17020 (VHH)
VHH: QVQLQQSGGGLVQAGGSLRLSCAGSGRPFGSYVMGWYRQAPGEQREMVARMTSAGSGGVADYGESVKGRFAISRDYAKNMVFLQMNSLKPEDTAVYYCWSALGYWGQGTQVTVSS
B14: NBX0751 (VHH)
VHH: QVQLQESGGGLVQPGGSLRLSCAVSGTIFSITPMGWYRQAPGKQRELVASISGGGSTNYTDPVKGRFTISRDKARNTVYLQMNNLKPEDTAVYYCNAASLAIVRGINNYWGQGTQVTVSS
B15: NBX0713 (VHH)
VHH: QVQLQESGGGLVQPGGSLRLSCAASGRTFRRNAMGWFRQAPGKAREFVATISWSGNRAYSDSVKGRFTISRDNGKNLVSLQMNSLKPEDTAVYYCAAARERITSTYYTPHVLTDYDAWGQGAQVTVSS
B16: NBX0712 (VHH)
VHH: B15 VHH with P14T, R30T, T50V, R101A
B17: NBX0715 (VHH)
VHH: B15 VHH with E6Q, P14A, R30S, G74E, Q81H
B18: NBX0732 (VHH)
VHH: B15 VHH with P14T, S52T, G74E, D114E
B19: NBX0711 (VHH)
VHH: QVQLQQSGGGLVQPGGSLRLSCAASRSIRSADAMAWYRQAPGKQRVWVATITSGGSTYYTDSVKGRFTISRDNAKSTVYLQMSSLKPEDTAVYYCNAVGDRTSYWGQGTQVTVAS
B20: NBX0733 (VHH)
VHH: QVQLQQSGGGLVQPGGSLRLSCAASGSIFSVDAMAWYRQAPGKQREWVATFTKGGSTYYAGSVKGRFTISRDNAKNTVYLQMSSLKPEDTAVYYCNAVGDRTGAWGQGTQVTVAS
B21: NBX0718 (VHH)
VHH: QVQLQESGGGLVQAGGSLRLSCAANGRTFSSYAMAWFRQAPGKEREFVAAVGWSGGRTYYTDSVKGRFTISRDNAKDTVYLQMNSLKPEDTAVYYCAATRGWAQATLLYDYDYWGQGTQVTVSS
B22: NBX0710 (VHH)
VHH: QVQLQESGGGLVQAGGSLRLSCAASGSIFSINAMGWYRQAPGKQRELVAGITSGGSTNYADSVKGRFTISRDNAKNTVYLQMNSLKPEDTAVYYCAADYVGLGDDAFYVPYWGQGTQVTVSA
B23: NBX0707 (VHH)
VHH: QVQLQESGGGLVQAGGSLRLSCAASGSIFSRDTMAWYRQVPGEQRELVAFITNFGGTNHADSVKGRFTISRDNAKNTVYLQMNSLKPEDTAVYYCAAGLVSLRTHTWEYWGQGTQVTVSS
B24: NBX0734 (VHH)
VHH: B23 VHH with F50Y, D89E
B25: NBX0731 (VHH)
VHH: B23 VHH with A14P, L20V, S27F, I28T, F50Y
B26: NBX0714 (VHH)
VHH: B23 VHH with F50Y, D61G, G98E
B27: NBX0709 (VHH)
VHH: B23 VHH with F50Y, R103H
B28: NBX0752 (VHH)
VHH: B23 VHH with T33N, F50L, R103L
B29: NBX0750 (VHH)
VHH: QVQLQESGGGLVQPGDSLRLSCAPSGRTFSGYVTGWFRQAPGMEREFVAAITWSGDSTYYADSVKGRFQISRDSAKNTVYLQMNSLKPEDAGVYYCAVKSQTYSTDYVQPRRYAYWGQGTQVTVSS
B30: NBX0717 (VHH)
VHH: QVQLQESGGGLVQAGGSLRLSCAASTNIATFTTMGWYRQAPGKERELVATTTPWGATTSYADSVKGRFTISNDNAKNTVNLQMNSLKPEDTAVYYCNAQQDIPTTQTYWGQGTQVTVSS
B31: NBX0716 (VHH)
VHH: QVQLQESGGGLVQAGGSLSLSCTASGRTFSTFPVAWFRQAPGKEREFVARINWFTTDTYYADSVKGRFTISRDSAKNTVYLQMNALKPEDTAIYYCAAARSNTGTSRFDYWGQGTQVTVSS
B32: NBX0740 (VHH)
VHH: QVQLQESGGGLVQAGGSLRLSCAASGRTFVNYNMGWFRQAPGKEREFVATINWSGGSTYYAGSVKGRFTISRDSAKNTVYLQMNKLKPEDTAVYYCAAEVGYGYQGPPLTTPSMYDYWGQGTQVTVST
B33: NBX0708 (VHH)
VHH: QVQLQESGGGLVQAGDSLSLSCVDSKRTADRYVMHWFRQVPGKDREFVAAISGNGLVRNYADSVKGRFTISRDNAKNMVYLQMKSLKPEDTAVYYCAADFVLDSRWRYVPYWGQGTQVTVSS

Target: T1, GST fusion of the EtAMA1-binding peptide of EtRON2 (Eimeria tenella, UniProt P08515 1-218 = GST)
T1 construct: Expressed in E. coli, purified as the other antigens but without TEV cleavage, so a His tag and TEV site probably remain; also called GST-RON2 peptide
T1 sequence (P08515 1-218, tags or fused parts left off): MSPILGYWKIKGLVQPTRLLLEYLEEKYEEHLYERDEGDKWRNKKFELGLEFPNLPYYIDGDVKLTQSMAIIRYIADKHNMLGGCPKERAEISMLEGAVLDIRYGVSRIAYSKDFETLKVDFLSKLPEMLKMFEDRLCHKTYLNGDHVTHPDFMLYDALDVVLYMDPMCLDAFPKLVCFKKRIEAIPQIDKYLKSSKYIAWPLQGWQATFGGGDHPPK
Assay: phage ELISA, wells coated with GST-RON2 peptide

Binder | binding relative to GST-coated wells [times] | binding relative to PBS-coated wells [times]
B1 | ≥ 3 | ≥ 4
B2 | ≥ 3 | ≥ 4
B3 | ≥ 3 | ≥ 4
B4 | ≥ 3 | ≥ 4
B5 | ≥ 3 | ≥ 4
B6 | ≥ 3 | ≥ 4
B7 | ≥ 3 | ≥ 4
B8 | ≥ 3 | ≥ 4
B9 | ≥ 3 | ≥ 4
B10 | ≥ 3 | ≥ 4
B11 | ≥ 3 | ≥ 4

Target: T2, GST fusion of the EmAMA1-binding peptide of EmRON2 (Eimeria maxima, UniProt P08515 1-218 = GST)
T2 construct: Expressed in E. coli, purified as the other antigens but without TEV cleavage, so a His tag and TEV site probably remain; also called GST-RON2 peptide
T2 sequence (P08515 1-218, tags or fused parts left off): as above
Assay: phage ELISA, wells coated with GST-RON2 peptide

Binder | binding relative to GST-coated wells [times] | binding relative to PBS-coated wells [times]
B12 | ≥ 3 | ≥ 4
B13 | ≥ 3 | ≥ 4

Target: T3, Eimeria maxima MIC2 (Eimeria maxima)
T3 construct: Recombinant antigen coated on ELISA wells; also called EmMIC2
T3 chain: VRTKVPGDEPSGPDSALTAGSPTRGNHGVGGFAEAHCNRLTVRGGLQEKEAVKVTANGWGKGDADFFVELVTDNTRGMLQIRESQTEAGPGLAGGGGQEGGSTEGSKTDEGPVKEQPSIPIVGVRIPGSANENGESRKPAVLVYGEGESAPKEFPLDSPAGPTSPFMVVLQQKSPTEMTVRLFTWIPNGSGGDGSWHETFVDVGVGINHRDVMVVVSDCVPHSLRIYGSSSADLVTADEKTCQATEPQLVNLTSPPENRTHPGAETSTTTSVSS
Assay: phage ELISA, antigen-coated wells;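 further: antigen dissolved in PBS and coated onto wells, with negative-control wells holding PBS alone as the reference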
Source text: Black bars show binding to wells coated with the antigen specified in Tables 1 and 2 dissolved in phosphate-buffered saline (PBS). Grey bars are negative controls that show binding to wells coated with PBS only.

Binder | binding relative to PBS-coated wells [times]
B14 | ≥ 4
B15 | ≥ 4
B16 | ≥ 4
B17 | ≥ 4
B18 | ≥ 4
B19 | ≥ 4
B20 | ≥ 4
B21 | ≥ 4
B22 | ≥ 4
B23 | 4
B24 | ≥ 4
B25 | ≥ 4
B26 | ≥ 4
B27 | ≥ 4
B28 | ≥ 4
B29 | ≥ 4
B30 | ≥ 4
B31 | ≥ 4
B32 | ≥ 4
B33 | ≥ 4
